Data reported in patent publication US8026218 (UNIVERSITY OF ARIZONA, dated 2011).
Bridge positions count the residues as written; N and C are the ends. Square brackets hold non-standard residues; d marks the D form. Ends that are not written are not given here. * marks the point of attachment. NH(3,5-(CF3)2-benzyl) = FC(F)(F)c1cc(CN*)cc(C(F)(F)F)c1; OBzl(3,5-(CF3)2) = FC(F)(F)c1cc(CO*)cc(C(F)(F)F)c1; Dmt = Cc1cc(O)cc(C)c1C[C@H](N)C(=O)O; Nle = CCCC[C@H](N)C(=O)O; NHBn = c1ccc(CN*)cc1; OBn = c1ccc(CO*)cc1

B1: TyrDAlaGlyPheNleProLeuTrpNHBn(CF3)2 (TY045) (peptide)
peptide: YAGFXPLW
modifications: D-Ala at 2; Nle at 5 (X); C-terminal NH-Bn(CF3)2 amide
B2: DmtDAlaGlyPheMetProLeuTrpNHBn(CF3)2 (TY032) (peptide)
peptide: [Dmt][dA]GFMPLW-{NH(3,5-(CF3)2-benzyl)}
B3: TyrDAlaGlyPheMetProLeuTrpNHBn (TY025) (peptide)
peptide: Y[dA]GFMPLW-NHBn
B4: TyrDAlaGlyPheMetProLeuTrpOBn (TY029) (peptide)
peptide: Y[dA]GFMPLW-OBn
B5: TyrDAlaGlyPheMetProLeuTrpOBn(CF3)2 (TY005) (peptide)
peptide: Y[dA]GFMPLW-{OBzl(3,5-(CF3)2)}
B6: Tyr[DCysGlyPheCys]ProLeuTrpNHBn(CF3)2 (TY039) (peptide)
peptide: Y[dC]GFCPLW-{NH(3,5-(CF3)2-benzyl)}
modifications: disulfide 2-5
notes: also called [D-Cys2, Cys5]
B7: Tyr[DCysGlyPheNleProDCys]TrpNHBn(CF3)2 (TY038) (peptide)
peptide: Y[dC]GF[Nle]P[dC]W-{NH(3,5-(CF3)2-benzyl)}
modifications: disulfide 2-7

Each binder was assayed against T1, human NK1 receptor (human, UniProt P25103 1-407) (assay: radioligand competition vs [3H]substance P, membranes of hNK1 CHO cells).
T1 construct: whole, on cells; Used as membrane preparations of transfected CHO cells; also called hNK1; human neurokinin-1 receptor
T1 sequence (P25103 whole entry): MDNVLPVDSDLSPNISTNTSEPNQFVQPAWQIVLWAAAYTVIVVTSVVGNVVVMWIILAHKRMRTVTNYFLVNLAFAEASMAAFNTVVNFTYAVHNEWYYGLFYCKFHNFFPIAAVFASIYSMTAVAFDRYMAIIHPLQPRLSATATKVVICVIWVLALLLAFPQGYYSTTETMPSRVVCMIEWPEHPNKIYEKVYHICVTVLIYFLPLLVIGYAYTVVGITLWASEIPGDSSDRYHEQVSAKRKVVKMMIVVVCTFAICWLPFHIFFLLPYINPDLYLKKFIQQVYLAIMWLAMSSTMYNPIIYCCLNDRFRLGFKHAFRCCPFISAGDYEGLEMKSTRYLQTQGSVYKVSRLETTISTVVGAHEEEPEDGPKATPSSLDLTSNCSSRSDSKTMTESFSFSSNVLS
B1 was tested, and the Ki was 0.0028 nM. For B2, the Ki was 0.008 nM.

What follows are binders tested against guinea pig NK1 receptor (guinea pig, UniProt P30547 1-407) (assay: cell-based or functional assay).
guinea pig NK1 receptor, sequence (P30547 whole entry): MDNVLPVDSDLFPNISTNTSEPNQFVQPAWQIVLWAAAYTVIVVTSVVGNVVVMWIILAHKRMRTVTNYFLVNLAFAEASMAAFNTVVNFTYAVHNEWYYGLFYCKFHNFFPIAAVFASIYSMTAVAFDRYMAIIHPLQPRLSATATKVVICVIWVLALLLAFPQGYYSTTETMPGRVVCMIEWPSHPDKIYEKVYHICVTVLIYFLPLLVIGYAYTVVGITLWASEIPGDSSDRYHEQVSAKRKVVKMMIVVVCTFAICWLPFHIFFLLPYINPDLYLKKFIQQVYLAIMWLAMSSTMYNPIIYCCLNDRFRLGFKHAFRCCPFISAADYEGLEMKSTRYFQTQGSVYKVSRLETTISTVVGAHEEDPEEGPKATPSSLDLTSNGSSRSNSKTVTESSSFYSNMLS
With B3 the “GPI/LMMP SP antagonist Ke” value was 9.9 nM. In the case of B4, the “GPI/LMMP SP antagonist Ke” value is reported as 5.1 nM. In the case of B5, the “GPI/LMMP SP antagonist Ke” value is reported as 24.7 nM. In the case of B6, the “GPI/LMMP SP antagonist Ke” value is reported as 434 nM. For B1, the “GPI/LMMP SP antagonist Ke” value was 40.8 nM. In the case of B2, the “GPI/LMMP SP antagonist Ke” value is reported as 7.5 nM. B7 was tested, and the “GPI/LMMP SP antagonist Ke” value was 12 nM.

These binders were tested against rat µ opioid receptor (rat, UniProt P33535 1-398) (assay: cell-based or functional assay).
rat µ opioid receptor, sequence (P33535 whole entry): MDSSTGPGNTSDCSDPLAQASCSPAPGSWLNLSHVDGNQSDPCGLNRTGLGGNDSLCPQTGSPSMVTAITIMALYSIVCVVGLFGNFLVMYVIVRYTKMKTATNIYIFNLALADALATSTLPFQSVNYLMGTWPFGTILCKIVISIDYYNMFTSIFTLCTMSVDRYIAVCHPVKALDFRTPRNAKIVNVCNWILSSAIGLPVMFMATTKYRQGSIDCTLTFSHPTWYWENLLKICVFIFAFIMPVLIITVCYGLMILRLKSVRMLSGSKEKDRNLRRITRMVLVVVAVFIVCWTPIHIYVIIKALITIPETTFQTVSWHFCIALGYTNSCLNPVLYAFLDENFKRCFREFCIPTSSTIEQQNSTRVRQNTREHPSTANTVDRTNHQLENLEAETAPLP
With B3 the “GTP binding rMOR Emax” value was 46.8%. For B4, the “GTP binding rMOR Emax” value was 133%. With B5 the “GTP binding rMOR Emax” value was 45.6%. For B6, the “GTP binding rMOR EC50” value was 118 nM and the “GTP binding rMOR Emax” value was 20%. For B2, the “GTP binding rMOR EC50” value was 62 nM and the “GTP binding rMOR Emax” value was 74%.

These binders were tested against µ opioid receptor of the guinea pig isolated ileum (guinea pig, UniProt P97266 1-98) (assay: cell-based or functional assay).
µ opioid receptor of the guinea pig isolated ileum, sequence (P97266 whole entry): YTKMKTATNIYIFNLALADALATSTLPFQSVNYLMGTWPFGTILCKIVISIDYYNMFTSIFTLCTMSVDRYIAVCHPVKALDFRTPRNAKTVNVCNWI
With B3 the “GPI/LMMP opioid(mu) agonist IC50” value was 61.1 nM. B4 was tested, and the “GPI/LMMP opioid(mu) agonist IC50” value was 22.2 nM. B5 was tested, and the “GPI/LMMP opioid(mu) agonist IC50” value was 359 nM. With B6 the “GPI/LMMP opioid(mu) agonist IC50” value was 10.1 % at 1 uM. With B1 the “GPI/LMMP opioid(mu) agonist IC50” value was 463 nM. With B2 the “GPI/LMMP opioid(mu) agonist IC50” value was 18.6 nM. For B7, the “GPI/LMMP opioid(mu) agonist IC50” value was 3 % at 1 uM.

What follows are binders tested against T2, human δ opioid receptor (human, UniProt P41143 1-372) (assay: cell-based or functional assay).
T2 sequence (P41143 whole entry, stated change not applied): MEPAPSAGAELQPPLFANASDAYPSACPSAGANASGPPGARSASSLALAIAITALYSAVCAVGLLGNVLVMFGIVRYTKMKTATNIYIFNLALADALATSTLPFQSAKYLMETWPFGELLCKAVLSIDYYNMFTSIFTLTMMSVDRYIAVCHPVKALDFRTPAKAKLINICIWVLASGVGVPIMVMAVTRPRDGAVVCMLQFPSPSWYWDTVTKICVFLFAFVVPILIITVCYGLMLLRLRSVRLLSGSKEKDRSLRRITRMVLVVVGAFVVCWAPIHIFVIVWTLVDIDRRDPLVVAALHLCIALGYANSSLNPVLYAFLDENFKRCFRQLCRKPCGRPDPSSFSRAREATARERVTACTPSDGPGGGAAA
In the case of B3, the “GTP binding hDOR EC50” value is reported as 2.6 nM and the “GTP binding hDOR Emax” value is reported as 51.7%. With B4 the “GTP binding hDOR EC50” value was 3.4 nM and the “GTP binding hDOR Emax” value was 98%. For B5, the “GTP binding hDOR EC50” value was 2.9 nM and the “GTP binding hDOR Emax” value was 47.6%. B6 was tested, and the “GTP binding hDOR EC50” value was 50.9 nM and the “GTP binding hDOR Emax” value was 37%. For B1, the “GTP binding hDOR EC50” value was 5 nM and the “GTP binding hDOR Emax” value was 125%. B2 was tested, and the “GTP binding hDOR EC50” value was 1.2 nM and the “GTP binding hDOR Emax” value was 24%.

These binders were tested against T2, human δ opioid receptor (assay: radioligand competition vs [3H]DPDPE, membranes of hDOR cells).
Binder B3 has a Ki of 0.44 nM. B5 showed a Ki of 2.8 nM. B6 gave a Ki of 10.7 nM. With B1 the Ki was 1 nM. For B2, the Ki was 0.12 nM.

What follows are binders tested against T3, rat NK1 receptor (rat, UniProt P14600 1-407) (assay: radioligand competition vs [3H]substance P, membranes of rNK1 CHO cells).
T3 construct: whole, on cells; Used as membrane preparations of transfected CHO cells; also called rNK1; rat neurokinin-1 receptor
T3 sequence (P14600 whole entry): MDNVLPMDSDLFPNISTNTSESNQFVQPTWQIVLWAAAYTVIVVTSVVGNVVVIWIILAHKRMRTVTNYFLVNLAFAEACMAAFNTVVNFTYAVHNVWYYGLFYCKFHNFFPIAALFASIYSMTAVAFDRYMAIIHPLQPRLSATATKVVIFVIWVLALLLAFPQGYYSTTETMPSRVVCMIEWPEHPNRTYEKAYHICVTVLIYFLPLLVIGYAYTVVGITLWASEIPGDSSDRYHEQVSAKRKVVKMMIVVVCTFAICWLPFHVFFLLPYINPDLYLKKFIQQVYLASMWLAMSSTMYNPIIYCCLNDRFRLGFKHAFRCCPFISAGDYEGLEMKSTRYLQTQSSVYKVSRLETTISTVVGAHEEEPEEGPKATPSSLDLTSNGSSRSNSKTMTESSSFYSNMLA
For B4, the Ki was 20.3 nM. B5 gave a Ki of 0.29 nM. With B6 the Ki was 556 nM. In the case of B2, the Ki is reported as 2.3 nM.
